Drawing on publication PMC9108885 (The Journal of Biological Chemistry, 2022), this text covers Kd for one molecule.

The assay addresses human α-synuclein (human, UniProt P37840 1-140, biotin (for BLI, sites not stated); 15N-labelled (for NMR)). The assay can be described thus: BLI. (Biolayer interferometry detects binding as a change in optical thickness at a sensor tip.)

B1: mouse nicotinamide mononucleotide adenylyltransferase 3 (enzyme)
chain: MKNRIPVVLLACGSFNPITNMHLRLFEVARDHLHQTGRYQVIEGIISPVNDSYGKKDLVASHHRVAMARLALQTSDWIRVDPWESEQAQWMETVKVLRHHHRELLRSSAQMDGPDPSKTPSASAALPELKLLCGADVLKTFQTPNLWKDTHIQEIVEKFGLVCVSRSGHDPERYISDSPILQQFQHNIHLAREPVLNEISATYVRKALGQGQSVKYLLPEAVITYIRDQGLYINDGSWKGKGKTG
The term Kd denotes the free concentration of one partner at which half of the binding sites on the other are occupied at equilibrium, for simple one-to-one binding. Higher therefore signals weaker binding. B1 showed a Kd of 1900 ± 30 nM.
